# Test results: the Human Domainome abundance scans (Beltran et al. 2025)
# ± gives the uncertainty stated by the source.
# B1: Gamma-crystallin C, residues 4 to 79; numbered along this chain, P07315 (parent)
# chain: ITFYEDRAFQGRSYETTTDCPNLQPYFSRCNSIRVESGCWMLYERPNYQGQQYLLRRGEYPDYQQWMGLSDSIRSC
# Variants of: B1
# Experiment: abundance fitness (aPCA) (normalised: wild type 0, dead -1); higher = more abundant; growth selection in yeast, the domain comes from the species named
# Details: Homo sapiens
row,Variant,abundance fitness
1,ITFYEDRAFQGRSYETTTDCPNLQPYFSRCNSIRVESGCWMLYERPNLQGQQYLLRRGEYPDYQQWMGLSDSIRSC [Y48L],-0.182 ± 0.072
2,ITFYEDRAFQGRSYETTTDCPNLQPYFSRCNSIRVESGCWMLYERPNFQGQQYLLRRGEYPDYQQWMGLSDSIRSC [Y48F],-0.584 ± 0.31
3,ITFYEDRAFQGRSYETTTDCPNLQPYFSRCNSIRVESGCWMLYERPNGQGQQYLLRRGEYPDYQQWMGLSDSIRSC [Y48G],-0.109 ± 0.064
4,ITFYEDRAFQGRSYETTTDCPNLQPYFSRCNSIRVESGCWMLYERPNAQGQQYLLRRGEYPDYQQWMGLSDSIRSC [Y48A],-0.329 ± 0.11
5,ITFYEDRAFQGRSYETTTDCPNLQPYFSRCNSIRVESGCWMLYERPNCQGQQYLLRRGEYPDYQQWMGLSDSIRSC [Y48C],0.083 ± 0.2
6,ITFYEDRAFQGRSYETTTDCPNLQPYFSRCNSIRVESGCWMLYERPNEQGQQYLLRRGEYPDYQQWMGLSDSIRSC [Y48E],-0.373 ± 0.15
7,ITFYEDRAFQGRSYETTTDCPNLQPYFSRCNSIRVESGCWMLYERPNKQGQQYLLRRGEYPDYQQWMGLSDSIRSC [Y48K],-0.813 ± 0.34
8,ITFYEDRAFQGRSYETTTDCPNLQPYFSRCNSIRVESGCWMLYERPNNQGQQYLLRRGEYPDYQQWMGLSDSIRSC [Y48N],-0.121 ± 0.28
9,ITFYEDRAFQGRSYETTTDCPNLQPYFSRCNSIRVESGCWMLYERPNMQGQQYLLRRGEYPDYQQWMGLSDSIRSC [Y48M],0.148 ± 0.068
10,ITFYEDRAFQGRSYETTTDCPNLQPYFSRCNSIRVESGCWMLYERPNVQGQQYLLRRGEYPDYQQWMGLSDSIRSC [Y48V],-0.955 ± 0.27
11,ITFYEDRAFQGRSYETTTDCPNLQPYFSRCNSIRVESGCWMLYERPNSQGQQYLLRRGEYPDYQQWMGLSDSIRSC [Y48S],-0.324 ± 0.12
12,ITFYEDRAFQGRSYETTTDCPNLQPYFSRCNSIRVESGCWMLYERPNTQGQQYLLRRGEYPDYQQWMGLSDSIRSC [Y48T],-0.626 ± 0.41
13,ITFYEDRAFQGRSYETTTDCPNLQPYFSRCNSIRVESGCWMLYERPNRQGQQYLLRRGEYPDYQQWMGLSDSIRSC [Y48R],-0.508 ± 0.049
14,ITFYEDRAFQGRSYETTTDCPNLQPYFSRCNSIRVESGCWMLYERPNHQGQQYLLRRGEYPDYQQWMGLSDSIRSC [Y48H],0.042 ± 0.21
15,ITFYEDRAFQGRSYETTTDCPNLQPYFSRCNSIRVESGCWMLYERPQYQGQQYLLRRGEYPDYQQWMGLSDSIRSC [N47Q],-0.179 ± 0.078
16,ITFYEDRAFQGRSYETTTDCPNLQPYFSRCNSIRVESGCWMLYERPLYQGQQYLLRRGEYPDYQQWMGLSDSIRSC [N47L],-0.01 ± 0.066
17,ITFYEDRAFQGRSYETTTDCPNLQPYFSRCNSIRVESGCWMLYERPHYQGQQYLLRRGEYPDYQQWMGLSDSIRSC [N47H],-0.125 ± 0.15
18,ITFYEDRAFQGRSYETTTDCPNLQPYFSRCNSIRVESGCWMLYERPMYQGQQYLLRRGEYPDYQQWMGLSDSIRSC [N47M],-0.044 ± 0.12
19,ITFYEDRAFQGRSYETTTDCPNLQPYFSRCNSIRVESGCWMLYERPSYQGQQYLLRRGEYPDYQQWMGLSDSIRSC [N47S],-0.115 ± 0.085
20,ITFYEDRAFQGRSYETTTDCPNLQPYFSRCNSIRVESGCWMLYERPIYQGQQYLLRRGEYPDYQQWMGLSDSIRSC [N47I],-0.308 ± 0.28
21,ITFYEDRAFQGRSYETTTDCPNLQPYFSRCNSIRVESGCWMLYERPTYQGQQYLLRRGEYPDYQQWMGLSDSIRSC [N47T],-0.1 ± 0.11
22,ITFYEDRAFQGRSYETTTDCPNLQPYFSRCNSIRVESGCWMLYERPCYQGQQYLLRRGEYPDYQQWMGLSDSIRSC [N47C],-0.159 ± 0.15
23,ITFYEDRAFQGRSYETTTDCPNLQPYFSRCNSIRVESGCWMLYERPFYQGQQYLLRRGEYPDYQQWMGLSDSIRSC [N47F],-0.101 ± 0.33
24,ITFYEDRAFQGRSYETTTDCPNLQPYFSRCNSIRVESGCWMLYERPAYQGQQYLLRRGEYPDYQQWMGLSDSIRSC [N47A],0.047 ± 0.084

row,Variant,abundance fitness
1,ITFYEDRAFQGRSYETTTDCPNLQPYFSRCNSIRVESGCWMLYERPRYQGQQYLLRRGEYPDYQQWMGLSDSIRSC [N47R],-0.038 ± 0.058
2,ITFYEDRAFQGRSYETTTDCPNLQPYFSRCNSIRVESGCWMLYERPEYQGQQYLLRRGEYPDYQQWMGLSDSIRSC [N47E],0.047 ± 0.12
3,ITFYEDRAFQGRSYETTTDCPNLQPYFSRCNSIRVESGCWMLYERPYYQGQQYLLRRGEYPDYQQWMGLSDSIRSC [N47Y],0.002 ± 0.24
4,ITFYEDRAFQGRSYETTTDCPNLQPYFSRCNSIRVESGCWMLYERPKYQGQQYLLRRGEYPDYQQWMGLSDSIRSC [N47K],0.025 ± 0.1
5,ITFYEDRAFQGRSYETTTDCPNLQPYFSRCNSIRVESGCWMLYERPVYQGQQYLLRRGEYPDYQQWMGLSDSIRSC [N47V],-0.181 ± 0.13
6,ITFYEDRAFQGRSYETTTDCPNLQPYFSRCNSIRVESGCWMLYERPWYQGQQYLLRRGEYPDYQQWMGLSDSIRSC [N47W],-0.086 ± 0.11
7,ITFYEDRAFQGRSYETTTDCPNLQPYFSRCNSIRVESGCWMLYERPPYQGQQYLLRRGEYPDYQQWMGLSDSIRSC [N47P],-0.909 ± 0.4
8,ITFYEDRAFQGRSYETTTDCPNLQPYFSRCNSIRVESGCWMLYERPGYQGQQYLLRRGEYPDYQQWMGLSDSIRSC [N47G],0.08 ± 0.066
9,ITFYEDRAFQGRSYETTTDCPNLQPYFSRCNSIRVESGCWMLYERPDYQGQQYLLRRGEYPDYQQWMGLSDSIRSC [N47D],-0.032 ± 0.26
10,ITFYEDRAFQGRSYETTTDCPNLQPYFSRCNSIRVESGCWMLYERPNYCGQQYLLRRGEYPDYQQWMGLSDSIRSC [Q49C],0.33 ± 0.29
11,ITFYEDRAFQGRSYETTTDCPNLQPYFSRCNSIRVESGCWMLYERPNYAGQQYLLRRGEYPDYQQWMGLSDSIRSC [Q49A],-0.02 ± 0.085
12,ITFYEDRAFQGRSYETTTDCPNLQPYFSRCNSIRVESGCWMLYERPNYPGQQYLLRRGEYPDYQQWMGLSDSIRSC [Q49P],-0.805 ± 0.34
13,ITFYEDRAFQGRSYETTTDCPNLQPYFSRCNSIRVESGCWMLYERPNYRGQQYLLRRGEYPDYQQWMGLSDSIRSC [Q49R],-0.07 ± 0.059
14,ITFYEDRAFQGRSYETTTDCPNLQPYFSRCNSIRVESGCWMLYERPNYTGQQYLLRRGEYPDYQQWMGLSDSIRSC [Q49T],0.026 ± 0.12
15,ITFYEDRAFQGRSYETTTDCPNLQPYFSRCNSIRVESGCWMLYERPNYNGQQYLLRRGEYPDYQQWMGLSDSIRSC [Q49N],-0.053 ± 0.16
16,ITFYEDRAFQGRSYETTTDCPNLQPYFSRCNSIRVESGCWMLYERPNYFGQQYLLRRGEYPDYQQWMGLSDSIRSC [Q49F],-0.298 ± 0.23
17,ITFYEDRAFQGRSYETTTDCPNLQPYFSRCNSIRVESGCWMLYERPNYKGQQYLLRRGEYPDYQQWMGLSDSIRSC [Q49K],-0.056 ± 0.18
18,ITFYEDRAFQGRSYETTTDCPNLQPYFSRCNSIRVESGCWMLYERPNYLGQQYLLRRGEYPDYQQWMGLSDSIRSC [Q49L],0.022 ± 0.11
19,ITFYEDRAFQGRSYETTTDCPNLQPYFSRCNSIRVESGCWMLYERPNYYGQQYLLRRGEYPDYQQWMGLSDSIRSC [Q49Y],-0.013 ± 0.3
20,ITFYEDRAFQGRSYETTTDCPNLQPYFSRCNSIRVESGCWMLYERPNYMGQQYLLRRGEYPDYQQWMGLSDSIRSC [Q49M],-0.115 ± 0.11
21,ITFYEDRAFQGRSYETTTDCPNLQPYFSRCNSIRVESGCWMLYERPNYEGQQYLLRRGEYPDYQQWMGLSDSIRSC [Q49E],0.098 ± 0.15
22,ITFYEDRAFQGRSYETTTDCPNLQPYFSRCNSIRVESGCWMLYERPNYDGQQYLLRRGEYPDYQQWMGLSDSIRSC [Q49D],-0.041 ± 0.41
23,ITFYEDRAFQGRSYETTTDCPNLQPYFSRCNSIRVESGCWMLYERPNYWGQQYLLRRGEYPDYQQWMGLSDSIRSC [Q49W],-0.275 ± 0.09
24,ITFYEDRAFQGRSYETTTDCPNLQPYFSRCNSIRVESGCWMLYERPNYGGQQYLLRRGEYPDYQQWMGLSDSIRSC [Q49G],-0.045 ± 0.052

row,Variant,abundance fitness
1,ITFYEDRAFQGRSYETTTDCPNLQPYFSRCNSIRVESGCWMLYERPNYVGQQYLLRRGEYPDYQQWMGLSDSIRSC [Q49V],-0.098 ± 0.097
2,ITFYEDRAFQGRSYETTTDCPNLQPYFSRCNSIRVESGCWMLYERPNYQDQQYLLRRGEYPDYQQWMGLSDSIRSC [G50D],-0.456 ± 0.2
3,ITFYEDRAFQGRSYETTTDCPNLQPYFSRCNSIRVESGCWMLYERPNYQRQQYLLRRGEYPDYQQWMGLSDSIRSC [G50R],-0.555 ± 0.08
4,ITFYEDRAFQGRSYETTTDCPNLQPYFSRCNSIRVESGCWMLYERPNYQIQQYLLRRGEYPDYQQWMGLSDSIRSC [G50I],-0.806 ± 0.37
5,ITFYEDRAFQGRSYETTTDCPNLQPYFSRCNSIRVESGCWMLYERPNYQHQQYLLRRGEYPDYQQWMGLSDSIRSC [G50H],-0.857 ± 0.43
6,ITFYEDRAFQGRSYETTTDCPNLQPYFSRCNSIRVESGCWMLYERPNYQSQQYLLRRGEYPDYQQWMGLSDSIRSC [G50S],-0.244 ± 0.1
7,ITFYEDRAFQGRSYETTTDCPNLQPYFSRCNSIRVESGCWMLYERPNYQVQQYLLRRGEYPDYQQWMGLSDSIRSC [G50V],-0.788 ± 0.23
8,ITFYEDRAFQGRSYETTTDCPNLQPYFSRCNSIRVESGCWMLYERPNYQEQQYLLRRGEYPDYQQWMGLSDSIRSC [G50E],-0.372 ± 0.074
9,ITFYEDRAFQGRSYETTTDCPNLQPYFSRCNSIRVESGCWMLYERPNYQCQQYLLRRGEYPDYQQWMGLSDSIRSC [G50C],-0.336 ± 0.35
10,ITFYEDRAFQGRSYETTTDCPNLQPYFSRCNSIRVESGCWMLYERPNYQNQQYLLRRGEYPDYQQWMGLSDSIRSC [G50N],-0.359 ± 0.13
11,ITFYEDRAFQGRSYETTTDCPNLQPYFSRCNSIRVESGCWMLYERPNYQAQQYLLRRGEYPDYQQWMGLSDSIRSC [G50A],-0.276 ± 0.17
12,ITFYEDRAFQGRSYETTTDCPNLQPYFSRCNSIRVESGCWMLYERPNYQKQQYLLRRGEYPDYQQWMGLSDSIRSC [G50K],-0.574 ± 0.25
13,ITFYEDRAFQGRSYETTTDCPNLQPYFSRCNSIRVESGCWMLYERPNYQMQQYLLRRGEYPDYQQWMGLSDSIRSC [G50M],-1.02 ± 0.38
14,ITFYEDRAFQGRSYETTTDCPNLQPYFSRCNSIRVESGCWMLYERPNYQLQQYLLRRGEYPDYQQWMGLSDSIRSC [G50L],-0.894 ± 0.27
15,ITFYEDRAFQGRSYETTTDCPNLQPYFSRCNSIRVESGCWMLYEVPNYQGQQYLLRRGEYPDYQQWMGLSDSIRSC [R45V],-0.15 ± 0.085
16,ITFYEDRAFQGRSYETTTDCPNLQPYFSRCNSIRVESGCWMLYEWPNYQGQQYLLRRGEYPDYQQWMGLSDSIRSC [R45W],-0.04 ± 0.1
17,ITFYEDRAFQGRSYETTTDCPNLQPYFSRCNSIRVESGCWMLYETPNYQGQQYLLRRGEYPDYQQWMGLSDSIRSC [R45T],-0.001 ± 0.12
18,ITFYEDRAFQGRSYETTTDCPNLQPYFSRCNSIRVESGCWMLYEYPNYQGQQYLLRRGEYPDYQQWMGLSDSIRSC [R45Y],0.187 ± 0.27
19,ITFYEDRAFQGRSYETTTDCPNLQPYFSRCNSIRVESGCWMLYERPNYQGAQYLLRRGEYPDYQQWMGLSDSIRSC [Q51A],-0.012 ± 0.098
20,ITFYEDRAFQGRSYETTTDCPNLQPYFSRCNSIRVESGCWMLYERPNYQGGQYLLRRGEYPDYQQWMGLSDSIRSC [Q51G],-0.047 ± 0.09
21,ITFYEDRAFQGRSYETTTDCPNLQPYFSRCNSIRVESGCWMLYERPNYQGCQYLLRRGEYPDYQQWMGLSDSIRSC [Q51C],-0.19 ± 0.33
22,ITFYEDRAFQGRSYETTTDCPNLQPYFSRCNSIRVESGCWMLYERPNYQGEQYLLRRGEYPDYQQWMGLSDSIRSC [Q51E],-0.023 ± 0.099
23,ITFYEDRAFQGRSYETTTDCPNLQPYFSRCNSIRVESGCWMLYERPNYQGIQYLLRRGEYPDYQQWMGLSDSIRSC [Q51I],0.078 ± 0.34
24,ITFYEDRAFQGRSYETTTDCPNLQPYFSRCNSIRVESGCWMLYERPNYQGDQYLLRRGEYPDYQQWMGLSDSIRSC [Q51D],-0.056 ± 0.13
